The values that follow are results of earlier work, collected in article PMC7174325.

Like-named read-outs stand apart in the source and are kept apart here.

The target of data set [1] is BAK (Homo sapiens) (UniProt Q16611). As to the kind of experiment: ITC.
The target in data set [2] is BAX (Homo sapiens) (UniProt Q07812). Briefly: ITC. (In general: In ITC the heat of successive injections is recorded.)
For data set [3], the target named is BAD (Homo sapiens) (UniProt Q92934).
Data set [4] shares this target. The source holds these as a separate data set.

Chain of BAD (Homo sapiens) (Q92934 whole entry): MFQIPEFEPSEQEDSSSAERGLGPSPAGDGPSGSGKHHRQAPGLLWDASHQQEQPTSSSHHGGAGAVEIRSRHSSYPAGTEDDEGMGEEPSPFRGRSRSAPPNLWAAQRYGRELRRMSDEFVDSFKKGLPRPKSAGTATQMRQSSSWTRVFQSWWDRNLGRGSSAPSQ
Chain of BCL-w (Q92843 2-193): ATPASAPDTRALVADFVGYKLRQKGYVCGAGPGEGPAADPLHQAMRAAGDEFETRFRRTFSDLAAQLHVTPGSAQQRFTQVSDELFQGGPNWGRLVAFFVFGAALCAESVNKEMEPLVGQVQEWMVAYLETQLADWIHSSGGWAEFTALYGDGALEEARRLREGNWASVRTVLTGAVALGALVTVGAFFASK
Chain of BAK (Homo sapiens) (Q16611 2-211): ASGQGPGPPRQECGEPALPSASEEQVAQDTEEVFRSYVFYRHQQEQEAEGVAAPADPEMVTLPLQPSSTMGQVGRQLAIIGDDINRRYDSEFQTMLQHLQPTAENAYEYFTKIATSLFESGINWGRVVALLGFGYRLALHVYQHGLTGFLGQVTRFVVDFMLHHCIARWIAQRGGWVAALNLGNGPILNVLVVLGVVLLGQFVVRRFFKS
Chain of BAX (Homo sapiens) (Q07812 whole entry): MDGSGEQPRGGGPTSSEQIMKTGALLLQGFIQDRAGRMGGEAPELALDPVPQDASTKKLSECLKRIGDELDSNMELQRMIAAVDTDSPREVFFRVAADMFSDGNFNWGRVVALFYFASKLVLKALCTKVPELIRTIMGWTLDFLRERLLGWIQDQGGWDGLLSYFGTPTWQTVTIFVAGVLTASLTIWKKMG
Chain of BCL-w homodimer (Q92843 2-193): as the sequence (Q92843 2-193) above
Chain of BCL-w monomer (Q92843 2-193): as above

Take BCL-w (from UniProt Q92843): the Kd (commonly the concentration at which binding is half-saturated) in data set [1] was 114 nM; in data set [2], 22.9 nM.

Turning to BCL-w monomer (from UniProt Q92843), the Kd in data set [3] was 14 nM.

Turning to BCL-w homodimer (from UniProt Q92843), the dissociation constant (Kd) in data set [4] is 150 nM.
